Target: T1, rabbit IFNγ (rabbit, UniProt P30123 24-167)
T1 construct: also called rabbit IFNgamma; interferon gamma
T1 sequence (looked up): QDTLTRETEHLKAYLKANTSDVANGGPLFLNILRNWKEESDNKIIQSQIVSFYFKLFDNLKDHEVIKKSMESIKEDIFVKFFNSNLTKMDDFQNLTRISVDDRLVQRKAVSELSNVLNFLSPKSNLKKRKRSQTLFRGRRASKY
Experiment: binding data, method not described

B1: M-T7 point mutation E209I (other)
chain: VRLTSYDLNTFVTWQDDGYTYNVSIKPYTTATWINVCEWASSSCNVSLALQYDLDVVSWARLTRVGKYTEYSLEPTCAVARFSPPEVQLVRTGTSVEVLVRHPVVYLRGQEVSVYGHSFCDYDFGYKTIFLFSKNKRAEYVVPGRYCDNVECRFSIDSQESVCATAVLTYDGSYRSEAGVEVCVPELAKRIVSPYIVKKSSDLEYVKRAIHNEYRLDTSSEGRRLEELYLTVASMFERLVEDVFE
notes: The mutant was made by mutagenic PCR of the His-tagged M-T7 construct; also called M-T7 (E209I); not shown: C-terminal His tag (His6x)
binding result: no binding
